From doi:10.1101/776245

Biological target: SERP2475 (Nhi), full-length (Staphylococcus epidermidis RP62a)
Assay: SEC

SERP2475 (Nhi), full-length (enzyme) gave a stoichiometry N of 2.
